Reference: patent publication US20240124607A1 (Merck Sharp & Dohme, published 2024)
Residue numbers refer to the chain shown, from its start.

B1: AB0466 F3' CEACAM5 TriNKET (bispecific antibody, human IgG1, kappa)
chain: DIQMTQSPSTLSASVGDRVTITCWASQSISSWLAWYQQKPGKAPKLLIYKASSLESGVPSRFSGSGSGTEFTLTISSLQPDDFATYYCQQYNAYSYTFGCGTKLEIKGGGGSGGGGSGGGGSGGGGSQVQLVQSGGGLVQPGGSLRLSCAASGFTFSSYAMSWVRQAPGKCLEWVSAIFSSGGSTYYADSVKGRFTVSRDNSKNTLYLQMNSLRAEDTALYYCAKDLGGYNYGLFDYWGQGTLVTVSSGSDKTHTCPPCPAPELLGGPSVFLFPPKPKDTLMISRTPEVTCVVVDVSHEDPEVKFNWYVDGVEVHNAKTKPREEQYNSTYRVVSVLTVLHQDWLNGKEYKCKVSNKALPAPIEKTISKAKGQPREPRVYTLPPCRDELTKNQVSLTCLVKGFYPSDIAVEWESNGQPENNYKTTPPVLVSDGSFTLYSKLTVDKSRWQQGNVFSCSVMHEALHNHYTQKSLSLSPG
heavy: EVQLVESGGGLVKPGGSLRLSCAASGFTFSSYSMNWVRQAPGKGLEWVSSISSSSSYIYYADSVKGRFTISRDNAKNSLYLQMNSLRAEDTAVYYCARGAPIGAAAGWFDPWGQGTLVTVSSASTKGPSVFPLAPSSKSTSGGTAALGCLVKDYFPEPVTVSWNSGALTSGVHTFPAVLQSSGLYSLSSVVTVPSSSLGTQTYICNVNHKPSNTKVDKKVEPKSCDKTHTCPPCPAPELLGGPSVFLFPPKPKDTLMISRTPEVTCVVVDVSHEDPEVKFNWYVDGVEVHNAKTKPREEQYNSTYRVVSVLTVLHQDWLNGKEYKCKVSNKALPAPIEKTISKAKGQPREPQVCTLPPSRDELTENQVSLTCLVKGFYPSDIAVEWESNGQPENNYKTTPPVLDSDGSFFLYSWLTVDKSRWQQGNVFSCSVMHEALHNHYTQKSLSLSPG
light: DIQMTQSPSSVSASVGDRVTITCRASQGISSWLAWYQQKPGKAPKLLIYAASSLQSGVPSRFSGSGSGTDFTLTISSLQPEDFATYYCQQGVSFPRTFGGGTKVEIKRTVAAPSVFIFPPSDEQLKSGTASVVCLLNNFYPREAKVQWKVDNALQSGNSQESVTEQDSKDSTYSLSSTLTLSKADYEKHKVYACEVTHQGLSSPVTKSFNRGEC
B2: AB0411 F3' CEACAM5 TriNKET (bispecific antibody, human IgG1, kappa)
chain: DIQLTQSPATLSVSPGERATLSCRASQSVSSSYLAWYQQKPGQAPRLLIYGASSRATGIPDRFSGSGSGTDFTLTISRLEPEDFAVYYCQQYNNWPLTFGCGTKVEIKGGGGSGGGGSGGGGSGGGGSQVQLVQSGGGLVQPGGSLRLSCAASGFTFTSYAMSWVRQAPGKCLEWVSAISGTGDSTFYADSVKGRFTFSRDNSKNTLYLQMNSLRAEDTAVYYCAKDLGWLQYGLFDYWGQGTLVTVSSGSDKTHTCPPCPAPELLGGPSVFLFPPKPKDTLMISRTPEVTCVVVDVSHEDPEVKFNWYVDGVEVHNAKTKPREEQYNSTYRVVSVLTVLHQDWLNGKEYKCKVSNKALPAPIEKTISKAKGQPREPRVYTLPPCRDELTKNQVSLTCLVKGFYPSDIAVEWESNGQPENNYKTTPPVLVSDGSFTLYSKLTVDKSRWQQGNVFSCSVMHEALHNHYTQKSLSLSPG
heavy: B1 heavy
light: B1 light
B3: AB0621 F3' CEACAM5 TriNKET (bispecific antibody, human IgG1, kappa)
chain: DIVMTQSPDSLAVSLGERATINCKSSHSLLYGNFQNNYLAWYQQKPGQPPKLLIYWASTRESGVPDRFSGSGSGTDFTLTISSLQAEDVAVYYCQQYYSYPYTFGCGTKLEIKGGGGSGGGGSGGGGSGGGGSQVQLVQSGAEVKKPGASVKVSCKASGYTFTAYTIHWVRQAPGQCLEWMGYINPSSGYTEYNQKFKDRTTLTADTSISTAYMELSRLRSDDTAVYYCTREGGLLWFDYWGQGTLVTVSSGSDKTHTCPPCPAPELLGGPSVFLFPPKPKDTLMISRTPEVTCVVVDVSHEDPEVKFNWYVDGVEVHNAKTKPREEQYNSTYRVVSVLTVLHQDWLNGKEYKCKVSNKALPAPIEKTISKAKGQPREPRVYTLPPCRDELTKNQVSLTCLVKGFYPSDIAVEWESNGQPENNYKTTPPVLVSDGSFTLYSKLTVDKSRWQQGNVFSCSVMHEALHNHYTQKSLSLSPG
heavy: B1 heavy
light: B1 light
B4: AB0264 F3' CEACAM5 TriNKET (bispecific antibody, human IgG1, kappa)
chain: B3 chain with S210P
heavy: B1 heavy
light: B1 light

Legend:
[1] = biological target: T1, hCEACAM5 A2-B2 domain (human, UniProt P06731 323-500, limits assumed); assay: SPR with hCEACAM5 domains
T1 sequence: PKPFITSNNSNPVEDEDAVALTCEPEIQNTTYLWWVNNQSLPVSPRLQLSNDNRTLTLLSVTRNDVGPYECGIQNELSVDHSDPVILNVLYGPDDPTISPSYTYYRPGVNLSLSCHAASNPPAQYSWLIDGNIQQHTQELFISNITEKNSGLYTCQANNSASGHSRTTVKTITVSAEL
Description: (§1) If the protein domain was an Fc fusion, AB0411, AB0466, AB0264, or AB0621 were captured using an anti-human Fab antibody (Cytiva, #28958325) immobilized onto a CM5 chip. The various hCEACAM5 protein domains (N-term, A1-B1, A2, B2, A3, or B3) were titrated over the captured TriNKETs at 50 μL/min for 180 sec of association and 300 sec of dissociation. The assay was run at 25° C. in HBS-EP+ running buffer, pH 7.4. The surface of the CM5 chip was regenerated using […] glycine pH 2.1.
(§2) The various hCEACAM5 protein domains were titrated over the captured antibody at 50 μL/min for 180 sec of association and 300 sec of dissociation. The assay was run at 37° C. in HBS-EP+ running buffer, pH 7.4. The surface of the CM5 chip was regenerated using 3M MgCl₂.

[2] = biological target: T2, hCEACAM5 A3-B3 domain (human, UniProt P06731 501-685, limits assumed); assay: SPR with hCEACAM5 domains
T2 sequence: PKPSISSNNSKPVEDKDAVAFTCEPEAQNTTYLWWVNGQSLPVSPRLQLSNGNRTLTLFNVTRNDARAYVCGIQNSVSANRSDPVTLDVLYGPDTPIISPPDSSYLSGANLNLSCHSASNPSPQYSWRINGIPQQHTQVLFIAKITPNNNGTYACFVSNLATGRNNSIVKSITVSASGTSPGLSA
Description: as §1, §2

[3] = biological target: T3, human CEACAM5 on cells (human, UniProt P06731 35-685); assay: cell-based or functional assay
T3 sequence: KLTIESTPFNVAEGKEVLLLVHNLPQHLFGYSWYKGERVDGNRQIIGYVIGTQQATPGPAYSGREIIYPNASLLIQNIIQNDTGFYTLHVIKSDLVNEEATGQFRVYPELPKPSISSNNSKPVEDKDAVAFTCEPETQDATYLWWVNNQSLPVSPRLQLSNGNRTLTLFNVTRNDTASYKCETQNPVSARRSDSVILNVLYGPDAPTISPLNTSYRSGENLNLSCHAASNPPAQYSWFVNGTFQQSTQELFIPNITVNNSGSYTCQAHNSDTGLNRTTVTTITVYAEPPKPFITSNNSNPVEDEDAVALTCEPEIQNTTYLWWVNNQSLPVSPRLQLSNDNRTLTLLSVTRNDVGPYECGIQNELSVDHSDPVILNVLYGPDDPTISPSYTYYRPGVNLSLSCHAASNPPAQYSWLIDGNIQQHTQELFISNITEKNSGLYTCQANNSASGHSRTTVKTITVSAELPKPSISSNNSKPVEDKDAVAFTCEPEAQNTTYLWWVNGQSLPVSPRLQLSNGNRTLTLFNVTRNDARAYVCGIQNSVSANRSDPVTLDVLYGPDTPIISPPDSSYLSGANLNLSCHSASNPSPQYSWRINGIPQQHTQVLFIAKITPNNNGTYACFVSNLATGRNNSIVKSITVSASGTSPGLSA

[4] = biological target: T4, Human CEACAM5 (E398) (human, UniProt P06731 35-685, limits assumed); assay: SPR, anti-hFc capture, 37C, pH 6.0
T4 construct: also called hCEACAM5
T4 sequence: T3 sequence
Description: To determine the affinity and cross-reactivity of CEACAM5 TriNKET molecules, AB0411, AB0466, or AB0621 TriNKETs were captured using an anti-human Fc capture antibody (Cytiva, #BR100839) immobilized onto a Biacore CM5 standard surface sensor chip following manufacturer instructions. Human or cynomolgus CEACAM5 were titrated over captured AB0411, AB0466, and AB0621 as 2-fold serial dilutions starting from 300 nM. Association was monitored for 300 sec and dissociation was monitored for 600 sec. The assay was run at 37° C. at pH 7.4 and 6.0. The surface of the CM5 chip was regenerated with 10 mM glycine pH 1.5 for 20 sec at 100 μL/min.

[5] = biological target: T5, soluble mouse Fc-human NKG2D dimer (human, UniProt P26718 78-216, limits assumed); assay: SPR, NKG2D-mFc captured, 37C, pH 6.0
T5 construct: also called NKG2D-mFc; human NKG2D fused to a mouse Fc
T5 sequence (looked up): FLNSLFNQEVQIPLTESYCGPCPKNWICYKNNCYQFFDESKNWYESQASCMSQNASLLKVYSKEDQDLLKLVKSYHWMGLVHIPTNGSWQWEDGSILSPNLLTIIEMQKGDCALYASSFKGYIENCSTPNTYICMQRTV
Description: (§3) Binding to NKG2D was assessed by SPR using a mouse Fc capture kit (Cytiva, #BR100838) immobilized onto a CM5 chip. Human and cynomolgus NKG2D fused to a mouse Fc were captured and AB0411, AB0466, or AB0621 was titrated from 600 nM.

[6] = biological target: T6, Cyno NKG2D-mFc (cynomolgus monkey, UniProt P61252 78-216, limits assumed); assay: SPR, NKG2D-mFc captured, 37C, pH 6.0
T6 construct: also called cynomolgus NKG2D fused to a mouse Fc
T6 sequence (looked up): T5 sequence (looked up) with D38N, T128I
Description: as §3

[7] = biological target: T5, soluble mouse Fc-human NKG2D dimer; assay: SPR, NKG2D-mFc captured, 37C, pH 7.4
Description: as §3

[8] = biological target: T6, Cyno NKG2D-mFc; assay: SPR, NKG2D-mFc captured, 37C, pH 7.4
Description: as §3

Row | Binder | binding result [1] | binding result [2] | EC50 (nM), NK lysis of LS-174T (DELFIA) [3] [nM] | EC50 (nM), NK lysis of SK-CO-1 (DELFIA) [3] [nM] | EC50 (nM), NK lysis of ZR-75-30 (DELFIA) [3] [nM] | Max Killing (%), HPAF-II [3] [%] | Max Killing (%), LS-174T [3] [%] | Max Killing (%), SK-CO-1 [3] [%] | Max Killing (%), ZR-75-30 [3] [%] | Kd [4] [nM] | kon [4] [M⁻¹ s⁻¹] | Kd [5] [nM] | koff [5] [s⁻¹] | kon [5] [M⁻¹ s⁻¹] | Kd [6] [nM] | koff [6] [s⁻¹] | kon [6] [M⁻¹ s⁻¹] | Kd [7] [nM] | koff [7] [s⁻¹] | kon [7] [M⁻¹ s⁻¹] | also measured
1 | B1 | no binding | no binding | 0.46 | 9.07 | 0.8 | 16.5 | 20.5 | 75.1 | 21.4 | 15 | 160000 | 480 | 0.12 | 240000 | 420 | 0.11 | 310000 | 680 | 0.16 | 240000 | EC50 (nM), NK lysis of HPAF-II (DELFIA) [3]: 0.23 nM; Kd [8]: 750 nM; koff [8]: 0.18 s⁻¹; kon [8]: 230000 M⁻¹ s⁻¹
2 | B2 | no binding | no binding | 0.32 | 4.55 | 0.17 | 28.3 | 28.9 | 84 | 25.9 | 1.9 | 310000 | 490 | 0.13 | 280000 | 500 | 0.14 | 270000 | 490 | 0.12 | 250000 | Kd [8]: 590 nM; koff [8]: 0.15 s⁻¹; kon [8]: 260000 M⁻¹ s⁻¹
3 | B3 | no binding | no binding | 1.87 | 1.02 | 1.58 | 29.8 | 42.6 | 80.9 | 29.8 | 14 | 140000 | 240 | 0.056 | 240000 | 300 | 0.045 | 150000 | 570 | 0.14 | 320000 | EC50 (nM), NK lysis of HPAF-II (DELFIA) [3]: 0.72 nM; Kd [8]: 520 nM; koff [8]: 0.12 s⁻¹; kon [8]: 320000 M⁻¹ s⁻¹
4 | B4 | no binding | no binding | – | – | – | – | – | – | – | – | – | – | – | – | – | – | – | – | – | – | –
